Data reported in patent US20230212218A1 (NAVIGO PROTEINS, published 2023).
Positions count from the first letter of the chain named.

B1: SEQ ID NO: 42 (CID208847) (designed binder)
chain: ADNKFSQSANLLAEAKKLNDAQGGLTEEQRNGFIQSLKDDVPAGVANNKEQQNAFYEILHLPK
B2: SEQ ID NO: 41 (CID208846) (designed binder)
chain: ADNKFSQSANLLAEAKKLNDAQGGITEEQRNGFIQSLKDDIGASPMNKEQQNAFYEILHLPK
B3: CID-213276 (designed binder)
chain: B1 chain with L25I, V41A, P42K, G44N, V45P, A46E, N47A
notes: not tied in the text
B4: CID-210234 (designed binder)
chain: B2 chain with I25L, I41A, G42S, A43E, S44K, P45G, M46A
notes: not tied in the text
B5: CID-213213 (designed binder)
chain: B2 chain with I25L, I41H, G42T, A43P, S44T, P45R, M46G
notes: not tied in the text
B6: CID-210240 (designed binder)
chain: B1 chain with V41P, P42V, A43L, G44R, V45G, A46K, N47P
notes: not tied in the text
B7: CID213235 (designed binder)
chain: ADNKFSQSANLLAEAKKLSDAQRGLTEEQRNGFIQSLKDDTKRHPKMNKEQQNAFYEILHLPK
B8: CID213333 (designed binder)
chain: B1 chain with L25I, V41A, P42K, A43T, G44N, V45P, A46G
B9: CID213197 (designed binder)
chain: B1 chain with V41T, P42A, G44N, V45P, A46T, N47A
B10: CID210259 (designed binder)
chain: B7 chain with S19N, R23G, L25I, T41A, H44N, K46M, M47T
B11: CID213246 (designed binder)
chain: B2 chain with I25L, I41V, G42R, A43R, S44V, P45G, M46S
B12: CID213191 (designed binder)
chain: B2 chain with I25L, I41G, G42T, A43E, S44G, P45V, M46H
B13: CID213215 (designed binder)
chain: B2 chain with I25L, I41V, G42R, A43K, S44L, P45G, M46P
B14: CID213278 (designed binder)
chain: B2 chain with I25L, I41M, G42N, A43V, S44G, P45K, M46H
B15: CID213224 (designed binder)
chain: ADNKFSQSANLLAEAKKLNDAQNGLTEEQRNGFIQSLKDDVRTNGANKEQQNAFYEILHLPK
B16: CID210279 (designed binder)
chain: ADNKFSQSANLLAEAKKLNDAQGGLTEEQRNGFIQSLKDDTHPEDRQHNKEQQNAFYEILHLPK

Target: T1, hIgG1-Fc (human, UniProt P01857-1 100-330 = IgG part, limits assumed)
T1 construct: domain: Fc; treated as the same molecule; also called IgG1 Fc region; hIgG-Fc
Assay: SPR (Biacore) on hIgG1-Fc, one concentration, 1 µM
Text: Analysis via label-free interaction assays using SPR spectroscopy (BIAcore). Change in refractive index measured in real time and plotted as response or resonance unit [RU] versus time [sec]. […] Solid line = Ig binding protein SEQ ID NO: 41; dotted line = Ig binding protein SEQ ID NO: 42.
A CM5 sensor chip (GE Healthcare) was equilibrated with SPR running buffer. Surface-exposed carboxylic groups were activated by passing a mixture of EDC and NHS to yield reactive ester groups. 700-1500 RU on-ligand were immobilized on a flow cell, off-ligand was immobilized on another flow cell. Injection of ethanolamine after ligand immobilization removes non-covalently bound Ig binding protein. Upon ligand binding, protein analyte was accumulated on the surface increasing the refractive index. This change in the refractive index was measured in real time and plotted as response or resonance units (RU) versus time. The analytes were applied to the chip in serial dilutions with a suitable flow rate (µl/min). After each run, the chip surface was regenerated with regeneration buffer and equilibrated with running buffer. The control samples were applied to the matrix. Regeneration and re-equilibration were performed as previously mentioned. […] Evaluated dissociation constants (KD) were standardized against off-target and KD values of different artificial Ig binding proteins for hIgG1-Fc (FIG. 2 and TABLE 6). […]

Row | Binder | binding result
1 | B1 | binds
2 | B2 | binds

Target: T1, hIgG1-Fc
Assay: SPR, Biacore 3000
Text: (§1) A CM5 sensor chip (GE Healthcare) was equilibrated with SPR running buffer. Surface-exposed carboxylic groups were activated by passing a mixture of EDC and NHS to yield reactive ester groups. 700-1500 RU on-ligand were immobilized on a flow cell, off-ligand was immobilized on another flow cell. Injection of ethanolamine after ligand immobilization removes non-covalently bound Ig binding protein. Upon ligand binding, protein analyte was accumulated on the surface increasing the refractive index. This change in the refractive index was measured in real time and plotted as response or resonance units (RU) versus time. The analytes were applied to the chip in serial dilutions with a suitable flow rate (µl/min). After each run, the chip surface was regenerated with regeneration buffer and equilibrated with running buffer. The control samples were applied to the matrix. Regeneration and re-equilibration were performed as previously mentioned. Binding studies were carried out by the use of the Biacore® 3000 (GE Healthcare) at 25° C.; data evaluation was operated via the BIAevaluation 3.0 software, provided by the manufacturer, by the use of the Langmuir 1:1 model (RI=0). Evaluated dissociation constants (KD) were standardized against off-target and KD values of different artificial Ig binding proteins for hIgG1-Fc (FIG. 2 and TABLE 6). For example, the KD of SEQ ID NO: 41 (CID208846) and SEQ ID NO: 42 (CID208847) is in single-digit µM range vs. hIgG1-Fc.

Row | Binder | binding result
3 | B3 | binds
4 | B4 | binds
5 | B5 | binds
6 | B6 | binds

Target: T1, hIgG1-Fc
Assay: SPR, Biacore 3000, 25 C, Langmuir 1:1 model
Text: as §1

Row | Binder | Kd [nM]
7 | B7 | 257
8 | B8 | 43
9 | B9 | 84
10 | B10 | 507
11 | B11 | 248
12 | B12 | 132
13 | B13 | 190
14 | B14 | 199
15 | B15 | 220
16 | B16 | 103
